Experimental data published in paper PMC9706586 (Theranostics, 2022).

Columns and labels:
Assay in all cases: SPR; Biacore T200, CM5 chip with immobilised anti-His antibody, 20 °C; His-tagged receptor or antigen captured; serial dilutions of anti-CD20 X-body, IgG or IgA injected (120 s binding, 240 s dissociation, 30 µL/min); 1:1 binding kinetic model or steady-state affinity model
Details in all cases: both partners purified
CD20 = biological target: T1, CD20 (human, UniProt P11836 1-297)
T1 construct: CD20, the antigen of rituximab; His-tagged, captured on the anti-His chip; also called antigen CD20; hCD20
T1 sequence (looked up): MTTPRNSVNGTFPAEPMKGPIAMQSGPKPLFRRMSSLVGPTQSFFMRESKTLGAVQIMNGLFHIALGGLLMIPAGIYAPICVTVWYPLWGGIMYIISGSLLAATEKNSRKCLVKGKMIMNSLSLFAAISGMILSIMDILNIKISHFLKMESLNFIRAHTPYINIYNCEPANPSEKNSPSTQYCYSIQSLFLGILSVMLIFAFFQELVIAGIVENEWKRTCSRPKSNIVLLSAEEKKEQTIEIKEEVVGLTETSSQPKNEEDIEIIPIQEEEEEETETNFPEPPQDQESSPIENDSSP

FcγRIIIa^F158 = biological target: T2, FcγRIIIa^F158 (human, UniProt P08637 17-208)
T2 construct: source: HEK293F, secreted, purified (HisTrap HP); not shown: His6, C-terminal, kept
T2 sequence (P08637 17-208): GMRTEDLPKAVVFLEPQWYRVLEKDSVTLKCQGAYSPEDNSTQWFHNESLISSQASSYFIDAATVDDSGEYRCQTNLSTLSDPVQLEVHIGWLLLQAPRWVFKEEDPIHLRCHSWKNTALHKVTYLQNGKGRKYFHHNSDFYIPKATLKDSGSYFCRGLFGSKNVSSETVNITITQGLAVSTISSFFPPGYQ

FcγRIIa^H131 = biological target: T3, FcγRIIa^H131 (human, UniProt P12318 34-217)
T3 construct: The methods name FcγRIIa only; source: HEK293F, secreted, purified (HisTrap HP); not shown: His6, C-terminal, kept
T3 sequence (looked up): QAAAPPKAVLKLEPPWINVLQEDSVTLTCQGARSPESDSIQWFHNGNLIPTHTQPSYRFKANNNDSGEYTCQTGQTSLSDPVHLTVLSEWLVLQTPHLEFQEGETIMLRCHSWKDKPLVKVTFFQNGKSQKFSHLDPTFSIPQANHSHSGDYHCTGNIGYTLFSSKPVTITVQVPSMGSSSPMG

FcγRIIb = biological target: T4, FcγRIIb (human, UniProt P31994 43-217)
T4 construct: human FcγRIIb, extracellular domain; source: HEK293F, secreted, purified (HisTrap HP); not shown: His6, C-terminal, kept
T4 sequence (looked up): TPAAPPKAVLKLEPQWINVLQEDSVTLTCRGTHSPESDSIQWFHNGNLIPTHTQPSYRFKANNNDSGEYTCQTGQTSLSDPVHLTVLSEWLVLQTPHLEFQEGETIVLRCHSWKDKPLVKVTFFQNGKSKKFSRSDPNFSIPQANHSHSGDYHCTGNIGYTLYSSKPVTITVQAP

B1: Rituximab X-body (antibody, human IgG1, kappa)
heavy: not shown
chain: QIVLSQSPAILSASPGEKVTMTCRASSSVSYIHWFQQKPGSSPKPWIYATSNLASGVPVRFSGSGSGTSYSLTISRVEAEDAATYYCQQWTSNPPTFGGGTKLEIKRTVAAPSVFIFPPSDEQLKSGTASVVCLLNNFYPREAKVQWKVDNALQSGNSQESVTEQDSKDSTYSLSSTLTLSKADYEKHKVYACEVTHQGLSSPVTKSFNRGECGGGGSGGGGSGGGGSGGGGSGGGGSGGGGSVPPPPPCCHPRLSLHRPALEDLLLGSEANLTCTLTGLRDASGATFTWTPSSGKSAVQGPPERDLCGCYSVSSVLPGCAQPWNHGETFTCTAAHPELKTPLTANITKSGNTFRPEVHLLPPPSEELALNELVTLTCLARGFSPKDVLVRWLQGSQELPREKYLTWASRQEPSQGTTTYAVTSILRVAAEDWKKGETFSCMVGHEALPLAFTQKTIDRMAGK
notes: 6×G4S linker; IgA2 Fc (hinge, CH2, CH3) without the tailpiece region; Tetramer of two heavy chains and two chimeric chains: two Fabs, one IgG1 Fc, one IgA2 Fc; also called anti-CD20 X-body; anti-human CD20 X-body with 6×G4S linker; source: HEK293F, transfected (pTT5), purified (HiTrap Protein A, Superdex 200 Increase); copies: 2 + 2
Kd (CD20): 8.04 nM
Kd (FcγRIIIa^F158): 0.0216 nM
Kd (FcγRIIa^H131): 0.0364 nM
Kd (FcγRIIb): 0.00422 nM
